Laboratory results reported in paper PMC8058328 (Developmental cell, 2021).

Molecular target: T1, GST-SH3BP4-HIS8x (human, UniProt Q9P0V3 1-963)
T1 sequence (looked up): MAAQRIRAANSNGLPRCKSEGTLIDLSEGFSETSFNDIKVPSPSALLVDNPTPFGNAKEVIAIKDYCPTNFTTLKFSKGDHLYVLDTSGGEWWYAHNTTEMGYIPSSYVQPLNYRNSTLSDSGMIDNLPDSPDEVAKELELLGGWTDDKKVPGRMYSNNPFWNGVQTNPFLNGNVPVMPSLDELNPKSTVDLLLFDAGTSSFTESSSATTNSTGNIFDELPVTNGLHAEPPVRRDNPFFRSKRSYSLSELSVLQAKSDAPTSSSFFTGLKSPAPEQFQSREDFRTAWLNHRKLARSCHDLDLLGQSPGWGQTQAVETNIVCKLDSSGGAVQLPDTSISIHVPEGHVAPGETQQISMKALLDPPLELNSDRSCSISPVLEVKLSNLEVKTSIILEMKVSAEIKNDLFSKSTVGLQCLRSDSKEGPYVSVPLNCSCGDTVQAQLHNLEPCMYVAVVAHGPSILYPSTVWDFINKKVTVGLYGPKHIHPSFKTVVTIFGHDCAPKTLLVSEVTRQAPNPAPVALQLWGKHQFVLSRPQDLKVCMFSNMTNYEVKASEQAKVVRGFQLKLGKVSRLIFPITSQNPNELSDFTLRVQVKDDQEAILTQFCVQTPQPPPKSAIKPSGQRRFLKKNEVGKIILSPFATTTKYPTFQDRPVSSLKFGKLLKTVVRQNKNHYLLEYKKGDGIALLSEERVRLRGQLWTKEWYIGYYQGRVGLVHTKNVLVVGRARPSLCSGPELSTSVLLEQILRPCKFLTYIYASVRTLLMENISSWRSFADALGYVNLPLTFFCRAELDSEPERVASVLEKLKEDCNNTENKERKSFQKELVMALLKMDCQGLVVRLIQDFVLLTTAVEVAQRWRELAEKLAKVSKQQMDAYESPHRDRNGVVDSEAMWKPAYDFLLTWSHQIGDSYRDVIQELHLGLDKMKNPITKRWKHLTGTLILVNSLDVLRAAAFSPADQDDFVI
Test: pull-down

- binding result: binds
B1: GIPC1-HIS8x (natural protein, human, UniProt O14908 1-333, looked up)
chain: MPLGLGRRKKAPPLVENEEAEPGRGGLGVGEPGPLGGGGSGGPQMGLPPPPPALRPRLVFHTQLAHGSPTGRIEGFTNVKELYGKIAEAFRLPTAEVMFCTLNTHKVDMDKLLGGQIGLEDFIFAHVKGQRKEVEVFKSEDALGLTITDNGAGYAFIKRIKEGSVIDHIHLISVGDMIEAINGQSLLGCRHYEVARLLKELPRGRTFTLKLTEPRKAFDMISQRSAGGRPGSGPQLGTGRGTLRLRSRGPATVEDLPSAFEEKAIEKVDDLLESYMGIRDTELAATMVELGKDKRNPDELAEALDERLGDFAFPDEFVFDVWGAIGDAKVGRY
